Reference: patent US20210388087A1 (Chugai, published 2021)
Changes are numbered by the printed parent chain.

B1: H183/L072 VL T92W (antibody, name in Kabat numbering, V domains shown)
VH: QVQLVESGGGLVQPGRSLRLSCAASGFTFSNAWMHWVRQAPGKGLEWVAQIKDKGNAYAAYYAPSVKGRFTISRDDSKNSIYLQMNSLKTEDTAVYYCHYVHYASASTVLPAFGVDAWGQGTTVTVSS
VL: DIVMTQSPLSLPVTPGEPASISCQASQELVHMNRNTYLHWYQQKPGQAPRLLIYKVSNRFPGVPDRFSGSGSGTDFTLKISRVEAEDVGVYYCAQGWSVPFTFGQGTKLEIK
notes: Dual-Ig
B2: H183/L072 VL T97R (antibody, name in Kabat numbering, V domains shown)
VH: B1 VH
VL: B1 VL with W97T, T102R
notes: Dual-Ig
B3: H183/L072 VL V27cE (antibody, name in Kabat numbering, V domains shown)
VH: B1 VH
VL: B1 VL with V30E, W97T
notes: Dual-Ig
B4: H183/L072 VL T97V (antibody, name in Kabat numbering, V domains shown)
VH: B1 VH
VL: B1 VL with W97T, T102V
notes: Dual-Ig
B5: H183/L072 VL V27cP (antibody, name in Kabat numbering, V domains shown)
VH: B1 VH
VL: B1 VL with V30P, W97T
notes: Dual-Ig
B6: H183/L072 VL V51L (antibody, name in Kabat numbering, V domains shown)
VH: B1 VH
VL: B1 VL with V56L, W97T
notes: Dual-Ig
B7: H183/L072 VL V27cH (antibody, name in Kabat numbering, V domains shown)
VH: B1 VH
VL: B1 VL with V30H, W97T
notes: Dual-Ig
B8: H183/L072 VL T97W (antibody, name in Kabat numbering, V domains shown)
VH: B1 VH
VL: B1 VL with W97T, T102W
notes: Dual-Ig
B9: H183/L072 VL V27cG (antibody, name in Kabat numbering, V domains shown)
VH: B1 VH
VL: B1 VL with V30G, W97T
notes: Dual-Ig
B10: H183/L072 VL V27cT (antibody, name in Kabat numbering, V domains shown)
VH: B1 VH
VL: B1 VL with V30T, W97T
notes: Dual-Ig
B11: H183/L072 VL V27cY (antibody, name in Kabat numbering, V domains shown)
VH: B1 VH
VL: B1 VL with V30Y, W97T
notes: Dual-Ig
B12: H183/L072 VL V51G (antibody, name in Kabat numbering, V domains shown)
VH: B1 VH
VL: B1 VL with V56G, W97T
notes: Dual-Ig
B13: H183/L072 VL V51H (antibody, name in Kabat numbering, V domains shown)
VH: B1 VH
VL: B1 VL with V56H, W97T
notes: Dual-Ig
B14: H183/L072 VL V27cA (antibody, name in Kabat numbering, V domains shown)
VH: B1 VH
VL: B1 VL with V30A, W97T
notes: Dual-Ig
B15: H183/L072 VL V51I (antibody, name in Kabat numbering, V domains shown)
VH: B1 VH
VL: B1 VL with V56I, W97T
notes: Dual-Ig
B16: H183/L072 VL V51K (antibody, name in Kabat numbering, V domains shown)
VH: B1 VH
VL: B1 VL with V56K, W97T
notes: Dual-Ig
B17: H183/L072 VL T97K (antibody, name in Kabat numbering, V domains shown)
VH: B1 VH
VL: B1 VL with W97T, T102K
notes: Dual-Ig
B18: H183/L072 VL V27cQ (antibody, name in Kabat numbering, V domains shown)
VH: B1 VH
VL: B1 VL with V30Q, W97T
notes: Dual-Ig
B19: H183/L072 VL T97H (antibody, name in Kabat numbering, V domains shown)
VH: B1 VH
VL: B1 VL with W97T, T102H
notes: Dual-Ig
B20: H183/L072 VL V51M (antibody, name in Kabat numbering, V domains shown)
VH: B1 VH
VL: B1 VL with V56M, W97T
notes: Dual-Ig
B21: H183/L072 VL V27cK (antibody, name in Kabat numbering, V domains shown)
VH: B1 VH
VL: B1 VL with V30K, W97T
notes: Dual-Ig
B22: H183/L072 VL T97Q (antibody, name in Kabat numbering, V domains shown)
VH: B1 VH
VL: B1 VL with W97T, T102Q
notes: Dual-Ig
B23: H183/L072 VL V27cW (antibody, name in Kabat numbering, V domains shown)
VH: B1 VH
VL: B1 VL with V30W, W97T
notes: Dual-Ig
B24: H183/L072 VL T97I (antibody, name in Kabat numbering, V domains shown)
VH: B1 VH
VL: B1 VL with W97T, T102I
notes: Dual-Ig
B25: H183/L072 VL T97A (antibody, name in Kabat numbering, V domains shown)
VH: B1 VH
VL: B1 VL with W97T, T102A
notes: Dual-Ig
B26: H183/L072 VL V27cR (antibody, name in Kabat numbering, V domains shown)
VH: B1 VH
VL: B1 VL with V30R, W97T
notes: Dual-Ig
B27: H183/L072 VL T97G (antibody, name in Kabat numbering, V domains shown)
VH: B1 VH
VL: B1 VL with W97T, T102G
notes: Dual-Ig
B28: H183/L072 VL T97S (antibody, name in Kabat numbering, V domains shown)
VH: B1 VH
VL: B1 VL with W97T, T102S
notes: Dual-Ig
B29: H183/L072 VL T97F (antibody, name in Kabat numbering, V domains shown)
VH: B1 VH
VL: B1 VL with W97T, T102F
notes: Dual-Ig
B30: H183/L072 VL T97M (antibody, name in Kabat numbering, V domains shown)
VH: B1 VH
VL: B1 VL with W97T, T102M
notes: Dual-Ig
B31: H183/L072 VL T97N (antibody, name in Kabat numbering, V domains shown)
VH: B1 VH
VL: B1 VL with W97T, T102N
notes: Dual-Ig
B32: H183/L072 VL V27cM (antibody, name in Kabat numbering, V domains shown)
VH: B1 VH
VL: B1 VL with V30M, W97T
notes: Dual-Ig
B33: H183/L072 VL V51F (antibody, name in Kabat numbering, V domains shown)
VH: B1 VH
VL: B1 VL with V56F, W97T
notes: Dual-Ig
B34: H183/L072 VL T97L (antibody, name in Kabat numbering, V domains shown)
VH: B1 VH
VL: B1 VL with W97T, T102L
notes: Dual-Ig
B35: H183/L072 VL T97D (antibody, name in Kabat numbering, V domains shown)
VH: B1 VH
VL: B1 VL with W97T, T102D
notes: Dual-Ig
B36: H183/L072 VL V27cS (antibody, name in Kabat numbering, V domains shown)
VH: B1 VH
VL: B1 VL with V30S, W97T
notes: Dual-Ig
B37: H183/L072 VL V51D (antibody, name in Kabat numbering, V domains shown)
VH: B1 VH
VL: B1 VL with V56D, W97T
notes: Dual-Ig
B38: H183/L072 VL V27cI (antibody, name in Kabat numbering, V domains shown)
VH: B1 VH
VL: B1 VL with V30I, W97T
notes: Dual-Ig
B39: H183/L072 VL T97E (antibody, name in Kabat numbering, V domains shown)
VH: B1 VH
VL: B1 VL with W97T, T102E
notes: Dual-Ig
B40: H183/L072 VL V51A (antibody, name in Kabat numbering, V domains shown)
VH: B1 VH
VL: B1 VL with V56A, W97T
notes: Dual-Ig
B41: H183/L072 VL V51E (antibody, name in Kabat numbering, V domains shown)
VH: B1 VH
VL: B1 VL with V56E, W97T
notes: Dual-Ig
B42: H183/L072 VL T97P (antibody, name in Kabat numbering, V domains shown)
VH: B1 VH
VL: B1 VL with W97T, T102P
notes: Dual-Ig
B43: H183/L072 VL V27cN (antibody, name in Kabat numbering, V domains shown)
VH: B1 VH
VL: B1 VL with V30N, W97T
notes: Dual-Ig
B44: H183/L072 VL V27cF (antibody, name in Kabat numbering, V domains shown)
VH: B1 VH
VL: B1 VL with V30F, W97T
notes: Dual-Ig
B45: H183/L072 VL V27cD (antibody, name in Kabat numbering, V domains shown)
VH: B1 VH
VL: B1 VL with V30D, W97T
notes: Dual-Ig
B46: H183/L072 VL V27cL (antibody, name in Kabat numbering, V domains shown)
VH: B1 VH
VL: B1 VL with V30L, W97T
notes: Dual-Ig

biological target: T1, Human CD137 ECD (human); experiment: Biacore SPR, vs parent H183/L072
T1 construct: entry includes C-terminal His-tag and biotin acceptor peptide; also called human CD137 extracellular domain; 4-1BB
T1 sequence (chain, as listed by the source limits assumed): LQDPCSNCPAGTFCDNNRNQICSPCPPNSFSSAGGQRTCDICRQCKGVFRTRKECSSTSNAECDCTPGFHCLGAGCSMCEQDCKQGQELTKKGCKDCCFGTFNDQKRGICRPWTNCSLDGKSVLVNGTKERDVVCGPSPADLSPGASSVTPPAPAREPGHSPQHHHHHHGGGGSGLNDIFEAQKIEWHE

Row | Binder | fold change of affinity
1 | B1 | 0 fold
2 | B2 | 0.9 fold
3 | B3 | 0.7 fold
4 | B4 | 1 fold
5 | B5 | 0.5 fold
6 | B6 | 1.7 fold
7 | B7 | 0.6 fold
8 | B8 | 0.1 fold
9 | B9 | 0.4 fold
10 | B10 | 0.7 fold
11 | B11 | 0.7 fold
12 | B12 | 0.4 fold
13 | B13 | 0.6 fold
14 | B14 | 0.5 fold
15 | B15 | 0.6 fold
16 | B16 | 1.4 fold
17 | B17 | 1.1 fold
18 | B18 | 0.8 fold
19 | B19 | 0.6 fold
20 | B20 | 1 fold
21 | B21 | 0.9 fold
22 | B22 | 0.7 fold
23 | B23 | 0.7 fold

Row | Binder | fold change of affinity
24 | B24 | 1.3 fold
25 | B25 | 0.6 fold
26 | B26 | 0.9 fold
27 | B27 | 0.6 fold
28 | B28 | 0.8 fold
29 | B29 | 0.3 fold
30 | B30 | 1.1 fold
31 | B31 | 0.5 fold
32 | B32 | 0.9 fold
33 | B33 | 0.2 fold
34 | B34 | 0.3 fold
35 | B35 | 0 fold
36 | B36 | 0.3 fold
37 | B37 | 0 fold
38 | B38 | 1 fold
39 | B39 | 0.4 fold
40 | B40 | 0.8 fold
41 | B41 | 0.6 fold
42 | B42 | 0 fold
43 | B43 | 0.5 fold
44 | B44 | 0.6 fold
45 | B45 | 0.3 fold
46 | B46 | 0.8 fold
